Patent US20190315842A1

Assays:
[1] = molecular target: histones; experiment: AtheNA Multi-Lyte ANA, Ab at 12.5 ug/ml
[2] = molecular target: histones; experiment: AtheNA Multi-Lyte ANA, Ab at 50 ug/ml
[3] = molecular target: histones; experiment: AtheNA Multi-Lyte ANA, Ab at 6.25 ug/ml
[4] = molecular target: histones; experiment: AtheNA Multi-Lyte ANA, Ab at 25 ug/ml
[5] = molecular target: histones; experiment: AtheNA Multi-Lyte ANA, Ab at 7.075 ug/ml
[6] = molecular target: histones; experiment: AtheNA Multi-Lyte ANA, Ab at 3.538 ug/ml
[7] = molecular target: histones; experiment: AtheNA Multi-Lyte ANA, Ab at 28.3 ug/ml
[8] = molecular target: sclerosis autoantigen (Scl-70) (UniProt P11387); experiment: AtheNA Multi-Lyte ANA, Ab at 12.5 ug/ml
[9] = molecular target: sclerosis autoantigen (Scl-70) (UniProt P11387); experiment: AtheNA Multi-Lyte ANA, Ab at 50 ug/ml
[10] = molecular target: sclerosis autoantigen (Scl-70) (UniProt P11387); experiment: AtheNA Multi-Lyte ANA, Ab at 6.25 ug/ml
[11] = molecular target: histones; experiment: AtheNA Multi-Lyte ANA, Ab at 8.35 ug/ml
[12] = molecular target: histones; experiment: AtheNA Multi-Lyte ANA, Ab at 16.7 ug/ml
[13] = molecular target: histones; experiment: AtheNA Multi-Lyte ANA, Ab at 4.175 ug/ml
[14] = molecular target: histones; experiment: AtheNA Multi-Lyte ANA, Ab at 2.088 ug/ml

Chain of sclerosis autoantigen (Scl-70) (P11387 2-765 limits assumed): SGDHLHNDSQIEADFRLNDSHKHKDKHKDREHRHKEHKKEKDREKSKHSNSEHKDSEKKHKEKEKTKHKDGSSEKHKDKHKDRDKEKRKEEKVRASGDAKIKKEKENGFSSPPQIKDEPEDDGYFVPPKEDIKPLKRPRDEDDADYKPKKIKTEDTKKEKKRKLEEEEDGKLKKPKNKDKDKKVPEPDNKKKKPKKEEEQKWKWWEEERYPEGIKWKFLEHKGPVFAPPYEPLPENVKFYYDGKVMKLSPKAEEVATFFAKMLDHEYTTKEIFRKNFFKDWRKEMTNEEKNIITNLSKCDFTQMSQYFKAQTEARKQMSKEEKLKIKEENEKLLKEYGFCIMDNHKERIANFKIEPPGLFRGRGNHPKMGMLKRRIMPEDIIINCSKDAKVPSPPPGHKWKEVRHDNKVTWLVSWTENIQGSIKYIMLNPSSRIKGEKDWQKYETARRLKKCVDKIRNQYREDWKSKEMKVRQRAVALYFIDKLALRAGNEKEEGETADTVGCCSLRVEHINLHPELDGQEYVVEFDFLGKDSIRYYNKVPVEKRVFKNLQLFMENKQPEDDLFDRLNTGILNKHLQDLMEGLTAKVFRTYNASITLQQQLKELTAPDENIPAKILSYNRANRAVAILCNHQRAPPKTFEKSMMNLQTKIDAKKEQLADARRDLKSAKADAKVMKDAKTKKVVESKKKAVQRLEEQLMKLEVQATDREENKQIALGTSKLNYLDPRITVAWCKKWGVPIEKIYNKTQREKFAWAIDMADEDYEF

| AtheNA signal [1] | AtheNA signal [2] | AtheNA signal [3] | Binder | also measured |
| --- | --- | --- | --- | --- |
| 1 | 4 | 3 | Ab7962/293i (antibody, V domains shown) VH: LVESGGGLVQPGGSLRLSCAASGFTFSSYEMNWVRQAPGKGLEWVSYISSSGSTIYYADSVKGRFTISRDNAKNSLYLQMNSLRAEDTAVYYCARVEQLAPSPYMDVWGKGTTVTVSS VL: MTQSLDSLTVSLGERATINCKSSQSLLYTSNNKNYLAWYQQKSGQPPKLLIYWASIRDSGVPDRFSGSGSATDFTLTINNLQAEDVAVYFCQQYYKTPLTFGGGTKVEVR | – |
| 8 | 15 | 6 | Ab7957/293i (antibody, IgG1, V domains shown) VH: LVESGGGVVPPGKSLRLSCAASGFTFSLYGIHWVRQAPGKGLEWVAVISYDGNTKYYTDSVKGRFTISRDNAKNTIYLQMNSLRLDDTAVYYCAKGAANSATFDFWGRGTMVTVSS VL: MTQSPDSLTLSLGERATINCRSSRTVLYRSNNKNYLAWYQHKPGQPPKLLMSWASTRETGVPDRFSGSGSGTHFTLTITSLQPEDVAVYYCQQYYSPPWTFGQGTKVEIR | AtheNA signal [4]: 9 |
| – | – | – | Ab7970 (antibody, IgG1, V domains shown) VH: LVESGGGVVQPGRSLRLSCAASGLTFSFYNFHWVRQTPGKGLEWVAGISYDATRTNYAGSVTGRFTISRDNSKKMLYLQMSSLGPQDTAVYHCARDRSDGQLHKVAFDSWGQGALVTVSS VL: MTQSPDSLTLSLGERATINCRSSRTVLYRSNNKNYLAWYQHKPGQPPKLLMSWASTRETGVPDRFSGSGSGTHFTLTITSLQPEDVAVYYCQQYYSPPWTFGQGTKVEIR | AtheNA signal [5]: 115; AtheNA signal [6]: 86; AtheNA signal [7]: 131 |
| 60 | 90 | 44 | Ab7955 (antibody, V domains shown) VH: LVESGGGVVRPGRSLRLSCVASGFTFNAYGMHWVRQGPGKGLEWLAVISYEGKTVYYADSVKDRFTISRDNSRNTVSLHLNNLRGEDTAVYYCAKGSASAAVLQHWGQGTLVSVTS VL: MTQSPGSLAVSLGSRATINCKSSRSLLYRSNNKNYLAWYQQKPGQSPRLLIYWASSRESGVPDRFSGGGSGTSFTLTISSLQAEDVAVYYCQQYFNPPWTFGQGTKVEIK | AtheNA signal [8]: 3; AtheNA signal [9]: 8; AtheNA signal [10]: 2 |
| 26 | 31 | 18 | Ab7960/293i (antibody, IgG1, V domains shown) VH: LVESGGGVVQPGKSLRLSCVASGFSFSTYGMHWVRQAPGKGLEWVAVMSFDGKTKYYADSVKGRFTISRDNPKNTLYLQMNSLRSEDTAVYYCAKGGAAAAVFDSWGPGILLTVSS VL: MTQSPNSLAVSLGGRATINCKASQSILYRSNNKNYLAWYQHKAGQPPKLLIYWASTRESGVPERFSGSGSRTDFTLTINGLQAEDVAVYYCQQYYNPPWTFGQGTKVEIK | – |
| 69 | 77 | 62 | Ab7961/293i (antibody, IgG1, V domains shown) VH: LVESGGGVVQPGKSLRLSCVASGFTFSSYGMHWVRQAPGKGLEWVAVMSFDGKTKYYADSVKGRFTISRDNPKNTLYLQMNSLRSEDTAVYYCAKGGAAAAVFDSWGQGILLTVSS VL: MTQSPNSLAVSLGGRATINCKTSQSILYRSNNKNYLAWYQHKSGQPPKLLIYWASTRESGVPDRFSGSGSRTDFTLTISGLQAEDVAVYYCQQYYNPPWTFGQGTKVEIK | AtheNA signal [4]: 77 |
| – | – | – | Ab7979 (antibody, IgG1, V domains shown) VH: LVESGGGVVQPGKSLRLSCVASGFTFSTYGMHWVRQAPGKGLEWVAVMSFDGKTKYYADSVKGRFTISRDNPKNTLYLQMNSLRSEDTAVYYCAKGGAAAAVFDSWGQGILLTVSS VL: MTQSPNSLAVSLGGRATINCKTSQSILYRSNNKNYLAWYQHKPGQPPKLLIYWASTRESRVPDRFSGSGSRTDFTLTISGLQAEDVAVYYCQQYYNPPWTFGQGTKVEIK | AtheNA signal [11]: 114; AtheNA signal [12]: 100; AtheNA signal [13]: 114; AtheNA signal [14]: 93 |
